The record followed here is paper doi:10.1101/2022.08.08.503162.

The test concerns the target His6-tagged luminal domain (ectodomain) of human SR-B1, amino acids 33-444 (human) (UniProt Q8WTV0). Put plainly: MST.

The substance “full-length APOA1-Milano expressed in 293F cells (protein A-APOA1-Milano construct) (from UniProt P02647 19-267) (natural protein)” returned a Kd of 2060 nM.
